Residue numbers refer to the chain shown, from its start.

T1: Recombinant human MMR (R&D systems) (human, UniProt P22897 19-1383)
T1 construct: Bought protein (R&D Systems #2534) coated on ELISA plates; also called hMMR; MRC1
T1 sequence: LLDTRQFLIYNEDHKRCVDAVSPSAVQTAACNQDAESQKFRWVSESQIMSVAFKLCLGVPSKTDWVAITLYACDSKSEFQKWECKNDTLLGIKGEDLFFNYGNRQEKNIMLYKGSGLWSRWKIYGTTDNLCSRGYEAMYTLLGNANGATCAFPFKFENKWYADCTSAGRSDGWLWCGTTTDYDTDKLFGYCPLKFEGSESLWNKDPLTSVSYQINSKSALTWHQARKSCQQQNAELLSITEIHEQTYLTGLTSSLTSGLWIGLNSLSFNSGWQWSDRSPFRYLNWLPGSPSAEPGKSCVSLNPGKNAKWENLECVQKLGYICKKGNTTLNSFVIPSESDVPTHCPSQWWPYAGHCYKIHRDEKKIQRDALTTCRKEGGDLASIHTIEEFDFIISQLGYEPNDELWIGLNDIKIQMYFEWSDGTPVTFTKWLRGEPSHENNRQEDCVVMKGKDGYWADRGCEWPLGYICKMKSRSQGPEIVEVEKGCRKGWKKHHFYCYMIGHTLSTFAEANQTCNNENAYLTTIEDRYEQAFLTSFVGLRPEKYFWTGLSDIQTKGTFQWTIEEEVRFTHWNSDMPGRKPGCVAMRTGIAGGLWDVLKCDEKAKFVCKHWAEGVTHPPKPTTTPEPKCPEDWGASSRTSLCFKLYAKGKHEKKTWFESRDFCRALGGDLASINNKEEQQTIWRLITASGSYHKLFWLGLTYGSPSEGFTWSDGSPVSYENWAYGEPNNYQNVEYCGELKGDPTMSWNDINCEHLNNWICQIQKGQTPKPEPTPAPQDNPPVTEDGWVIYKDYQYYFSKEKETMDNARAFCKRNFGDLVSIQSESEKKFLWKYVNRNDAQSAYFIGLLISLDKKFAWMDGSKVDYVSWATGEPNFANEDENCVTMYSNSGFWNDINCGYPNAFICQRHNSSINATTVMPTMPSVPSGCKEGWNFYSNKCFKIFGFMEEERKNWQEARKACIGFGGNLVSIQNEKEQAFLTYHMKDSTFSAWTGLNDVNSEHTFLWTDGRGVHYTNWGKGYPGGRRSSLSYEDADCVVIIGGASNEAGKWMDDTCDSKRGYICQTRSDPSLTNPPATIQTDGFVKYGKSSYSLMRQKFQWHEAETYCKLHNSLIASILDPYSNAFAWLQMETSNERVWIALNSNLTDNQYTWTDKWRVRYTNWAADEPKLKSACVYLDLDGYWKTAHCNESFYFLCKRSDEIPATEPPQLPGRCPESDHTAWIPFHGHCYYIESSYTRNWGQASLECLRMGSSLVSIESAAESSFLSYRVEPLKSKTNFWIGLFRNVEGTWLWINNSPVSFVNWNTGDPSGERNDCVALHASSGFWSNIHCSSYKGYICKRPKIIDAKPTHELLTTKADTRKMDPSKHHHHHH

T2: Recombinant mouse MMR (R&D systems) (mouse, UniProt Q61830 20-1388)
T2 construct: Bought recombinant extracellular portion of mouse MMR with a C-terminal His tag; It was immobilized on the CM5 chip for SPR and coated on plates for PE-ELISA; The SPR methods say only 'MMR'; also called mMMR; recombinant MMR
T2 sequence: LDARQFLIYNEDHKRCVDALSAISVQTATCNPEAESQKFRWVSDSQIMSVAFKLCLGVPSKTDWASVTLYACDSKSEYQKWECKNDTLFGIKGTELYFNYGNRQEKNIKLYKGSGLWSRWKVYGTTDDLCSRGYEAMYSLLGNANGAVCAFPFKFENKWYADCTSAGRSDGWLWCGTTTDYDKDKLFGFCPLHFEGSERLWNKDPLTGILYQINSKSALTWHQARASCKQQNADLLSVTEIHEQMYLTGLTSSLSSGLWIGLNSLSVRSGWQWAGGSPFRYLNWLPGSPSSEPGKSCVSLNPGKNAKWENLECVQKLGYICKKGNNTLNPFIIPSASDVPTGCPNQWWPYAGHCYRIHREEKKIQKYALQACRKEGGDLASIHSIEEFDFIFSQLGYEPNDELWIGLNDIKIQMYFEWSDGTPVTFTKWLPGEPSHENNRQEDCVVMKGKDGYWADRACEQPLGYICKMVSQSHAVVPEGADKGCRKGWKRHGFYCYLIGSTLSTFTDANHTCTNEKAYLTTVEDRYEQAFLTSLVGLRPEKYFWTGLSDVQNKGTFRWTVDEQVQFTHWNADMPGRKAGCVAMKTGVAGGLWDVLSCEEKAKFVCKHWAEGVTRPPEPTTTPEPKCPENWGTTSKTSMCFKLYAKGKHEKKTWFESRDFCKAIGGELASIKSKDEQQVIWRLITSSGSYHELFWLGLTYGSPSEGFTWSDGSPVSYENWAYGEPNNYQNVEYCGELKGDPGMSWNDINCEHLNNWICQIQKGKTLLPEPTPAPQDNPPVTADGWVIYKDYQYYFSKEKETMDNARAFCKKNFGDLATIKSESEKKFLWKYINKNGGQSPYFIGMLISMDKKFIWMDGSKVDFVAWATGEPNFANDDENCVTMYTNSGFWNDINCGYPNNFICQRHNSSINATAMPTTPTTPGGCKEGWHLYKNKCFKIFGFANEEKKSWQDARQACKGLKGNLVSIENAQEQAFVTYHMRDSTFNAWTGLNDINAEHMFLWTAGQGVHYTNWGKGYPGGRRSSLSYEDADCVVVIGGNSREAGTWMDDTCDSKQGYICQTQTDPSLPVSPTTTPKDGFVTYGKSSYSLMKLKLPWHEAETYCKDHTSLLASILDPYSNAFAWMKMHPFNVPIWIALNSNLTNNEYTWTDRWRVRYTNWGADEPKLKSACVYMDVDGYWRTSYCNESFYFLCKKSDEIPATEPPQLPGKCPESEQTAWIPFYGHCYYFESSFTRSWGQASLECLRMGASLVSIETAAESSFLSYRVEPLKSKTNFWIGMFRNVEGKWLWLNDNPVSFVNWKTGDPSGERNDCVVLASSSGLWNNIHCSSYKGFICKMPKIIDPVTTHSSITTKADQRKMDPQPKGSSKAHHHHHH

B1: NbhmMMRm20.52 (VHH)
VHH: QVQLQESGGGLVQAGGSLRLSCAASGRIFSAYAMGWFRQAPGKEREFVAAISRSGDSTDYADSVKGRFTISRDSAKNMVYLQMNSLKPEDTALYHCAARTVSAPPSAAWGYGYWGQGTQVTVSS
notes: Tested as a periplasmic extract in PE-ELISA
B2: NbhmMMRm19.52 (VHH)
VHH: QVQLQESGGGLVQAGGSLRLSCLASGDTFSNYVMAWFRQAPGKEREIVAAIRLSGARYVPDSVKGRFTISRDNAKNAMYLQMTSLKPEDTARYYCAAGHTWGQYAYWGQGTQVTVSS
notes: as for B1
B3: NbhmMMRm10.79 (VHH)
VHH: QVQLQESGGGLVQPGGSLKLSCAASGSIFSIKTMGWYRQAPGKQRELVAAVSSGGSTNYADSVKGRFTISRDNAKNAVYLQMNSLKPEDTAVYYCNADGVVAWDQPYDNYWGQGTQVTVSS
notes: as for B1
B4: NbhmMMRm6.71 (VHH)
VHH: QVQLQESGGGLVQAGGSLRLSCAASGGTFDDSVIGWFRQAPGKEREGVSCISSNDGTTHYASPVKGRFTISSDNAKNTVYLQMNSLKPEDTAVYYCAAETPSIGSPCTSASYDYWGQGTQVTVSS
notes: as for B1
B5: NbhmMMRm14.4 (VHH)
VHH: QVQLQESGGGLVQAGDSLRLSCAASGRTFSINYMGWYRQAPGKQRELVAAITSGSGSTNYADSVKGRFTISRDNAKNTMYLQMNSLKPEDTAVYYCNADMDSSLSGGYVDVWGQGTQVTVSS
notes: as for B1
B6: NbhmMMRm14.93 (VHH)
VHH: B5 VHH with N77K
notes: as for B1
B7: NbhmMMRm3.49 (VHH)
VHH: QVQLQESGGGLVQPGGSLRLSCAASGFSLDYYAIGWFRQAPGKEREGISCISYKGGSTTYADSVKGRFTISKDNAKNTAYLQMNSLKPEDTGIYSCAAGFVCYNYDYWGQGTQVTVSS
notes: as for B1
B8: NbhmMMRm24.31 (VHH)
VHH: QVQLQESGGGLVQPGGSLRLSCTATGFTLKNHHIGWLRQAPGKEREGVASINSSGGSTNYADSVQGRFTISRDNAKNTVFLQMNSLKSEDTAVYYCARLRRYYGLNLDPGSYDYWGQGTQVTVSS
notes: as for B1
B9: NbhmMMRm22.84 (VHH)
VHH: QVQLQESGGGLVQPGGSLRLSCAASGRTFSNYVNYAMGWFRQFPGKEREFVASISWSSVTTYYADSVKGRFTISRDNAKNTVYLQMNSLKPEDTAVYYCAAHLAQYSDYAYRDPHQFGAWGQGTQVTVSS
notes: as for B1
B10: NbhmMMRm15.49 (VHH)
VHH: QVQLQESGGGLVQAGGSLRLSCAASGSTFSINNMGWYRQAPGKQRELVAGITGGNTHYADSVKGRFTISRDNAKNTMYLQMNSLKPEDTAVYYCNANWGAYWGQGTQVTVSS
notes: as for B1
B11: NbhmMMRm17.72 (VHH)
VHH: QVQLQESGGGLVQPGGSLRLSCAASGSIVSINAMGWYRQAPGKQRELVALVTGSGRTNLADSVKGRFTISRDNAKNTVYLQMNSLKPEDTAVYYCNVLVIGPLEGYDYWGQGTQVTVSS
notes: as for B1
B12: NbhMMRm5.38 (VHH)
VHH: QVQLQESGGGLVQAGGSLRLSCAASGFTDDDYDIGWFRQAPGKEREGVSCISSSDGSTYYADSVKGRFTISSDNAKNTVYLQMNSLKPEDTAVYYCAADFFRWDSGSYYVRGCRHATYDYWGQGTQVTVSS
notes: as for B1
B13: NbhMMRm10.19 (VHH)
VHH: B3 VHH with V51I, S52T, A77T
notes: as for B1
B14: NbhMMRm1.33 (VHH)
VHH: QVQLQESGGGLVQPGGSLRLSCAASGFTLDNYTVAWFRQAPGKEREGVSCISSSGGSTNYADSVKGRFTISRDNSKKSVYLQMNSLKPEDTAIYTCAAERAPPYYSGYYFFDSTCVAASYDYWGQGTQVTVSS
notes: as for B1
B15: NbhMMRm3.1 (VHH)
VHH: B7 VHH with S28T, S85N, S95Y, Q110P
notes: as for B1
B16: NbhMMRm2.15 (VHH)
VHH: QVQLQESGGGLVQPGESLRLSCKLSGFTLDYYDIGWFRQAPGKEREGVSCISSIGGSANYADSVKGRFTISRDNVKNTVYLQMNSLKPEDTAIYYCAAEAQTPYNDGDCTRASYDYWGQGIQVTVSS
notes: as for B1

The target in one assay is T1, Recombinant human MMR (R&D systems). Kind of assay: PE-ELISA, periplasmic extract on coated human MMR. In general terms: An ELISA detects its analyte on a solid surface through an enzyme-linked reagent.
As for B1, the binding result is given as “binds”.

As for B2, the binding result is given as “binds”.

For the molecule B3, the binding result is on record as “binds”.

In the case of B4, the binding result is given as “binds”.

As for B5, the binding result is “binds”.

On to B6, for which the binding result was “binds”.

As to B7, the binding result is given as “binds”.

In the case of B8, the binding result is “binds”.

For B9, the binding result was “binds”.

Take B10: the binding result is given as “binds”.

As for B11, the binding result is given as “binds”.

A further assay addresses T2, Recombinant mouse MMR (R&D systems). Kind of assay: PE-ELISA, periplasmic extract on coated mouse MMR.
As to B1, the binding result is “binds”.

With B2, the binding result is “binds”.

As to B3, the binding result is recorded as “binds”.

With B4, the binding result is “binds”.

Take B5: the binding result is listed as “binds”.

With B6, the binding result is reported as “binds”.

For the molecule B7, the binding result is “binds”.

Regarding B8, the binding result is listed as “binds”.

For B9, the binding result is “binds”.

B10: the binding result was “binds”.

As to B11, the binding result was “binds”.

The target in the next assay is T1, Recombinant human MMR (R&D systems). Kind of assay: PE-ELISA, periplasmic extract on coated human MMR, OD405 at least 3x over milk-blocking proteins.
With B12, the binding result is recorded as “binds”.

For B13, the binding result is listed as “binds”.

In the case of B14, the binding result is “binds”.

As for B15, the binding result is given as “binds”.

As for B16, the binding result is “binds”.

The values are drawn from patent publication US20120301394A1 (published 2012).
